1 molecule from US20190016799A1 (HANGZHOU SUMGEN BIOTECHNOLOGY, published 2019) can be followed below.

Assay [1] addresses T1, BTLA (UniProt Q7Z6A9 31-157, limits assumed).
T1 construct: Bought protein
Description: ELISA, plate coated with BTLA 1 ug/ml, detection with GAH-Fab-HRP, OD450; antibody concentration not shown on the sheet. (In general: An ELISA detects its analyte on a solid surface through an enzyme-linked reagent.)

Assay [2] has as its target T2, hPD1-Fc (fusion protein of human PD-1 protein extracellular segment-human IgG1 Fc fragment) (human, UniProt Q15116 25-170).
T2 construct: extracellular domain; Expressed in CHO-K1 cells; also called hPD1-FC-Biotin (biotin-labeled form); not shown: human IgG1 Fc fragment
Put plainly: competition ELISA, plate coated with hPD1-FC 1 µg/mL, competitor BMS01-Biotin 0.5 µg/mL, detection with HRP-avidin, OD450. The procedure:
(§1) The plate was washed 3 times with a washing solution repeatedly, added with HRP-labeled avidin, and placed in the dark at room temperature (20±5° C.) for 45 minutes. The plate was washed 5 times with a washing solution repeatedly, and patted on a drying paper to dry out the residual droplets as possible; added with 100 μl of TMB to each well, and placed in the dark for 3 min at room temperature (20±5° C.); 100 μl of 2N H₂SO₄ stop solution was added to each well to stop the substrate reaction, and the microplate reader was read at 450 nm for the OD value.

For assay [3], the target named is T2, hPD1-Fc (fusion protein of human PD-1 …). Description: SPR (BIACORE), antibody captured by anti-human IgG-Fab on the chip, hPD1-FC as mobile phase at 3.125-100 nM; the text's value is tenfold above Table 1. Here is the method: (§2) The antibody affinity was analyzed using BIACORE Biomacromolecular Interaction Device (GE).
In general terms: Surface plasmon resonance follows binding to a sensor surface in real time, without labels.

In assay [4] the target is T3, ICOS (UniProt Q9Y6W8 21-140, limits assumed).
T3 construct: Bought protein
T3 sequence (looked up): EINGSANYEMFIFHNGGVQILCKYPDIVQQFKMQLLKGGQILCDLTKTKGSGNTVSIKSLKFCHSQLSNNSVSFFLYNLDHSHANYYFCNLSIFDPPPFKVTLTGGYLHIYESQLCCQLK
Description: ELISA, plate coated with ICOS 1 ug/ml, detection with GAH-Fab-HRP, OD450; antibody concentration not shown on the sheet.

In assay [5] the target is T4, monkey PD1 (monkey).
T4 construct: Bought protein; also called monkey PD1 protein; monkey PD1 antigen
Description: ELISA, plate coated with monkey PD1 1 ug/ml, detection with GAH-Fab-HRP, OD450.

The target of assay [6] is T2, hPD1-Fc (fusion protein of human PD-1 …). Put plainly: blocking ELISA: hPDL1 coated at 1 ug/mL, hPD1-FC-Biotin 5 ug/mL, antibody titrated from 500 ug/mL. The procedure: as §1
Assay [7] shares this target. Description: SPR (BIACORE), antibody captured by anti-human IgG-Fab, hPD1-FC as analyte at 3.125-100 nM. Here is the method:
as §2

For assay [8] the target is unchanged. Description: ELISA, plate coated with hPD1-Fc 1 ug/ml, detection with GAH-Fab-HRP, OD450.
Assay [9] deals with T5, CD28 (UniProt P10747 19-152).
T5 construct: Bought protein
Description: ELISA, plate coated with CD28 1 ug/ml, detection with GAH-Fab-HRP, OD450; antibody concentration not shown on the sheet.

Assay [10] addresses T2, hPD1-Fc (fusion protein of human PD-1 …). Put plainly: ELISA, plate coated with hPD1-Fc 1 ug/ml, detection with GAH-Fab-HRP, OD450. This is another data set of the same source.
The target in assay [11] is T6, CTLA4 (UniProt P16410 36-162).
T6 construct: Bought protein
T6 sequence (P16410 36-162 limits assumed): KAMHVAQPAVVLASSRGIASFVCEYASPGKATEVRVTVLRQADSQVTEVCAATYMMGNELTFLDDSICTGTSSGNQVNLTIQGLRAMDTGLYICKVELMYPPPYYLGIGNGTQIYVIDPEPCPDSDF
Put plainly: ELISA, plate coated with CTLA4 1 ug/ml, detection with GAH-Fab-HRP, OD450; antibody concentration not shown on the sheet.

Read-outs that look alike come from different tables or passages of the source.

T2 sequence (Q15116 25-170): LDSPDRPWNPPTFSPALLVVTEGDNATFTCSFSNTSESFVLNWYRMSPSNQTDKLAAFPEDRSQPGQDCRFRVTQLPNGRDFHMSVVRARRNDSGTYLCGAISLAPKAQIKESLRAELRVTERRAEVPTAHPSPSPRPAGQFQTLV

B1: SG001 antibody (antibody, human IgG1, kappa, V domains shown)
VH: QVQLVESGGGVVQPGRSLRLTCKASGLTFSSSGMHWVRQAPGKGLEWVAVIWYDGSKRYYADSVKGRFTISRDNSKNTLFLQMNSLRAEDTAVYYCATNNDYWGQGTLVTVSS
VL: EIVLTQSPATLSLSPGERATLSCRASQSVSSYLAWYQQKPGQAPRLLIYTASNRATGIPARFSGSGSGTDFTLTISSLEPEDFAVYYCQQYSNWPRTFGQGTKVEIKR
On to B1, for which the binding result in [1], in assay [4], in assay [9] and in [11] was “no binding” throughout. Also, the “IC50 (read off the curve)” value in [2] is ~30 µg/mL. The Kd in assay [3] and in assay [7] was 0.215 nM in each case. The “EC50 (read off the curve)” value is ~0.03 µg/mL in assay [5], ~0.05 µg/mL in assay [8] and ~0.03 µg/mL in [10]. This molecule also yielded an IC50 in assay [6] of 1.47 µg/mL. Besides, in [7], the koff was 6.85e-05 s⁻¹. Also, in assay [7], the kon came out at 318000 M⁻¹ s⁻¹.

As a reminder, the Kd is the free concentration of one partner at which half of the binding sites on the other are occupied at equilibrium, for simple one-to-one binding. One may read the EC50 (read off the curve) as the concentration at which the effect is half-maximal. As a reminder, the IC50 is the concentration that inhibits the measured activity by half. As usually defined, the koff is the first-order rate constant of dissociation. In general, kon refers to a measure of how fast the partners come together.
